The values below come from US20240116985A1, “STAPLED PEPTIDES AND METHODS THEREOF” (priority 2020, published 2024).

By IC50 is commonly meant the concentration that gives 50% inhibition. What is called EC50 is the concentration at which the effect is half-maximal. A high value points to lower potency in that assay.

Starred links: 1 amine or outer side, 2 acyl side, 3 side chain; linkers in the order of their positions; H or OH if unused. Positions of bridges follow the written chain, without caps; N, C: chain ends. Non-standard residues stand in square brackets, D forms with d. Primed or numbered codes have the meaning given here. PyrS2″ = (S)-3-amino-1-((pent-4-en-1-yloxy)carbonyl)pyrrolidine-3-carboxylic acid (stapling residue), C=CCCCOC(=O)N1CC[C@@](N[*:1])(C(=O)[*:2])C1; B5(4) = 2,2-bis(4-pentenyl)glycine = 2-amino-2-(pent-4-en-1-yl)hept-6-enoic acid (stitching residue), C=CCCCC(CCCC=C)(N[*:1])C(=O)[*:2]; B5(3) = 2,2-bis(4-pentenyl)glycine (stitching residue), C=CCCCC(CCCC=C)(N[*:1])C(=O)[*:2]; B5 = 2-amino-2-(pent-4-en-1-yl)hept-6-enoic acid, C=CCCCC(CCCC=C)(N[*:1])C(=O)[*:2]; Phe(3-COOH) = N[C@@H](Cc1cccc(C(=O)O)c1)C(=O)O; 2F3MeF = Cc1cccc(C[C@H](N[*:1])C(=O)[*:2])c1F; Phe(2-CF3) = N[C@@H](Cc1ccccc1C(F)(F)F)C(=O)O; Bip = N[C@@H](Cc1ccc(-c2ccccc2)cc1)C(=O)O; Bta = N[C@@H](Cc1csc2ccccc12)C(=O)O; αAllylPro = C=CC[C@@]1(C(=O)O)CCCN1; tBuAla = CC(C)(C)C[C@H](N)C(=O)O; 3Thi = N[C@@H](Cc1ccsc1)C(=O)O; S8 = C=CCCCCCC[C@](C)(N)C(=O)O; Phg = N[C@H](C(=O)O)c1ccccc1

In the first assay the target is full-length beta-Catenin (Uniprot ID P35222) (Homo sapiens (Human)) (UniProt P35222). The assay can be described thus: fluorescence polarization competition; peptide titrated against full-length beta-catenin + 5FAM-TCF4(10-53). (Fluorescence polarisation rises when a labelled molecule tumbles more slowly, as on binding a larger partner.)
Target sequence in this assay (P35222 whole entry): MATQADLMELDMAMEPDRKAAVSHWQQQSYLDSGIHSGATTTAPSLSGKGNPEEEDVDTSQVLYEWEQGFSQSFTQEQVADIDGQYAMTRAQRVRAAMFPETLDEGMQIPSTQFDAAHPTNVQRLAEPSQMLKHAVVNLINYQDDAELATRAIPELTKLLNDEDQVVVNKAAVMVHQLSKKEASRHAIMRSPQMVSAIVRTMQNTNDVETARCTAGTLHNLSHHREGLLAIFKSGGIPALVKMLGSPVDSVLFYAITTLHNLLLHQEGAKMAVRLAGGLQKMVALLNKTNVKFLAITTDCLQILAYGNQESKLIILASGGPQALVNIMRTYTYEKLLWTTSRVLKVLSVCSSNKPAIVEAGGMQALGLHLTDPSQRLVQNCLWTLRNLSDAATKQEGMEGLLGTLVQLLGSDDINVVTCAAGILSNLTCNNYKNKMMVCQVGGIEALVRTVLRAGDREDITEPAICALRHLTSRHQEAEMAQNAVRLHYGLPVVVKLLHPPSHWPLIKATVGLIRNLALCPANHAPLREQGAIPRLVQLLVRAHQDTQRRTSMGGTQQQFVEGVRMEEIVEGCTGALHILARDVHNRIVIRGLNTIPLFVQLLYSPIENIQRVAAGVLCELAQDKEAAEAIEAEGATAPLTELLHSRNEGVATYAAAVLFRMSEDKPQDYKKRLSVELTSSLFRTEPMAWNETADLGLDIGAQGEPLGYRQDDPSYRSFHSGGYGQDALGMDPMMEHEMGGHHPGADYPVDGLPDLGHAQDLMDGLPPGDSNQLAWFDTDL
Ac-[αAllylPro]DL[B5]DEAAFN[S8][3Thi][Bta]-NH2 (staple 1-4, 4-11) [I-716]: the 50% inhibitory concentration (IC50) was 91 nM. On the same count and under the same terms, for Ac-[αAllylPro]DL[B5]DEAAFN[S8][3Thi][Bta]-NH2 (staple 1-4, 4-11) [I-717] the value was 39 nM; for Ac-[αAllylPro]DI[B5(3)]DEAAFN[S8]F[Bta]-NH2 (staple 1-4, 4-11) [I-715], 60.5 nM; for Ac-[αAllylPro]D[tBuAla][B5(3)]DEAAFN[S8]F[Bta]-NH2 (staple 1-4, 4-11) [I-713], 70 nM. Still for that read-out and setting: for Ac-[αAllylPro]DI[B5]DEAA[Phg]Q[S8]F[Bta]Q-NH2 (staple 1-4, 4-11) [I-726] the value was 5000 nM; for Ac-[αAllylPro]DI[B5]DEAAFN[S8][3Thi][Bta]-NH2 (staple 1-4, 4-11) [I-720], 75 nM; for Ac-[αAllylPro]DI[B5]DEAA[Bip]Q[S8]F[Bta]Q-NH2 (staple 1-4, 4-11) [I-723], 3830 nM.

Consider Ac-[αAllylPro]D[tBuAla][B5]DEAAFN[S8][3Thi][Bta]-NH2 (staple 1-4, 4-11) [I-718], for which the half-inhibitory concentration (IC50) is 82 nM.

As for Ac-[αAllylPro]DI[B5(3)]DEAAFN[S8]F[Bta]-NH2 (staple 1-4, 4-11) [I-714], the IC50 came out at 131 nM.

A further assay shares this target. The assay can be described thus: fluorescence polarization competition; 10 nM full-length beta-catenin, 10 nM 5FAM-TCF4(10-53) as competitor probe.
Target sequence in this assay (P35222 2-781 limits assumed): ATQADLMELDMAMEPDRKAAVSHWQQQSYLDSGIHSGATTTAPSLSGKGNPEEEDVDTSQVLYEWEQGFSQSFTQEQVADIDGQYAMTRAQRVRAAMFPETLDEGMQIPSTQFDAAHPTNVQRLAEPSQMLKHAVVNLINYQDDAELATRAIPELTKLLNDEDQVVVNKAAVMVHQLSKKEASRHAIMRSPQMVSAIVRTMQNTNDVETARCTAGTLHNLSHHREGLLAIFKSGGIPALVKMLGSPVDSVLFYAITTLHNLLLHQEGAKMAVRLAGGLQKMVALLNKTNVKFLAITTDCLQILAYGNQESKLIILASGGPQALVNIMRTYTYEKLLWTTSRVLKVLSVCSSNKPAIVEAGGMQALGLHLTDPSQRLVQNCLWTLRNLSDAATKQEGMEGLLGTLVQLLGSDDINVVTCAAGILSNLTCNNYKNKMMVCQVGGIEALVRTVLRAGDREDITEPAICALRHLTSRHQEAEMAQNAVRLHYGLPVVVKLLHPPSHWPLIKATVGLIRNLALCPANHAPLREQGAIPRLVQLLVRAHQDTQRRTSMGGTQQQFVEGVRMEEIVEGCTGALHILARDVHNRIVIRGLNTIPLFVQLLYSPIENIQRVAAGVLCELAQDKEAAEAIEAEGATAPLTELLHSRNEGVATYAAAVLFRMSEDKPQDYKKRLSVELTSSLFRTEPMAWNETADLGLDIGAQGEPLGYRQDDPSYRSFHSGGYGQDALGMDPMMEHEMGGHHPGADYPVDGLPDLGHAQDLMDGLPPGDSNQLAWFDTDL
As to Ac-[αAllylPro]D[tBuAla][B5(4)]D[Phe(3-COOH)]SAFL[PyrS2″][Phe(2-CF3)][Bta]A-NH2 (staple 1-4, 4-11) [I-2059], the half-maximal inhibitory concentration (IC50) is 38 nM. Same read-out and setting: for Ac-[αAllylPro]D[tBuAla][B5(4)]D[Phe(3-COOH)]QAFL[PyrS2″][3Thi][Bta]L-NH2 (staple 1-4, 4-11) [I-2056] the value was 16 nM; for Ac-[αAllylPro]D[tBuAla][B5(4)]D[Phe(3-COOH)]NAFL[PyrS2″][Phe(2-CF3)][Bta]A-NH2 (staple 1-4, 4-11) [I-2058], 10 nM; for Ac-[αAllylPro]D[tBuAla][B5(4)]D[Phe(3-COOH)]TAFL[PyrS2″][Phe(2-CF3)][Bta]A-NH2 (staple 1-4, 4-11) [I-2060], 56 nM. Molecule Ac-[αAllylPro]D[tBuAla][B5(4)]D[Phe(3-COOH)]QAFL[PyrS2″][2F3MeF][Bta]A-NH2 (staple 1-4, 4-11) [I-2057] yielded a half-maximal inhibitory concentration (IC50) of 17 nM. Same read-out and setting: the figure for Ac-[αAllylPro]D[tBuAla][B5(3)]D[Phe(3-COOH)]QAFF[PyrS2″][3Thi][Bta]A-NH2 (staple 1-4, 4-11) [I-2052] is 12 nM. Still for that read-out and setting: for Ac-[αAllylPro]D[tBuAla][B5(4)]D[Phe(3-COOH)]QAFV[PyrS2″][3Thi][Bta]A-NH2 (staple 1-4, 4-11) [I-2054] the value was 5 nM; for Ac-[αAllylPro]D[tBuAla][B5(3)]D[Phe(3-COOH)]TAFL[PyrS2″][3Thi][Bta]A-NH2 (staple 1-4, 4-11) [I-2051], 16 nM.

Another assay shares this target. In words: fluorescence polarization competition; full-length beta-catenin with 5FAM-labeled TCF4 residues 10-53 probe as competitor.
Target sequence in this assay (P35222 whole entry): as the sequence (P35222 whole entry) above
In turn, Ac-[αAllylPro]DL[B5]DEAAFN[S8][3Thi][Bta]-NH2 (staple 1-4, 4-11) [I-716] showed a 50% effective concentration (EC50) of 91 nM.

Molecule Ac-[αAllylPro]DL[B5]DEAAFN[S8][3Thi][Bta]-NH2 (staple 1-4, 4-11) [I-717] showed an EC50 of 39 nM. Still for that read-out and setting: the figure for Ac-[αAllylPro]DI[B5(3)]DEAAFN[S8]F[Bta]-NH2 (staple 1-4, 4-11) [I-715] is 60.5 nM; for Ac-[αAllylPro]D[tBuAla][B5(3)]DEAAFN[S8]F[Bta]-NH2 (staple 1-4, 4-11) [I-713] it is 70 nM.

Turning to Ac-[αAllylPro]DI[B5]DEAA[Phg]Q[S8]F[Bta]Q-NH2 (staple 1-4, 4-11) [I-726], the EC50 came out at 5000 nM. Consider Ac-[αAllylPro]DI[B5]DEAAFN[S8][3Thi][Bta]-NH2 (staple 1-4, 4-11) [I-720], for which the concentration giving a half-maximal response (EC50) is 75 nM.

With Ac-[αAllylPro]DI[B5]DEAA[Bip]Q[S8]F[Bta]Q-NH2 (staple 1-4, 4-11) [I-723], the concentration giving a half-maximal response (EC50) was 3830 nM. On the same count and under the same terms, for Ac-[αAllylPro]D[tBuAla][B5]DEAAFN[S8][3Thi][Bta]-NH2 (staple 1-4, 4-11) [I-718] the value was 82 nM; for Ac-[αAllylPro]DI[B5(3)]DEAAFN[S8]F[Bta]-NH2 (staple 1-4, 4-11) [I-714], 131 nM.
